Results taken from publication PMC10266979.

Tests used:
[1] = biological target: neuraminidase (N1) of influenza A virus A/Hawaii/66/2019 (H1N1) (influenza A virus A/Hawaii/66/2019 (H1N1))
[2] = biological target: neuraminidase (N1) of influenza A virus A/Idaho/07/2018 (H1N1) (influenza A virus A/Idaho/07/2018 (H1N1))
[3] = biological target: neuraminidase (N1) of influenza A virus A/Illinois/45/2019 (H1N1) (influenza A virus A/Illinois/45/2019 (H1N1))
[4] = biological target: neuraminidase (N1) of influenza A virus A/Michigan/45/2015 (H1N1) (influenza A virus A/Michigan/45/2015 (H1N1))
[5] = biological target: neuraminidase (N1) of influenza A virus A/Puerto Rico/1934 (H1N1) (influenza A virus A/Puerto Rico/8/34 (H1N1)) (UniProt P03468)
[6] = biological target: neuraminidase (N1) of influenza A virus A/Victoria/2570/2019 (H1N1) (influenza A virus A/Victoria/2570/2019 (H1N1))
[7] = biological target: neuraminidase (N2) of influenza A virus A/Cambodia/E0826360/2020 (H3N2) (influenza A virus A/Cambodia/E0826360/2020 (H3N2))
[8] = biological target: neuraminidase (N2) of influenza A virus A/Darwin/6/2021 (H3N2) (influenza A virus A/Darwin/6/2021 (H3N2))
[9] = biological target: neuraminidase (N2) of influenza A virus A/HongKong/4801/2014 (H3N2) (influenza A virus A/HongKong/4801/2014 (H3N2))
[10] = biological target: neuraminidase (N2) of influenza A virus A/Kansas/14/2017 (H3N2) (influenza A virus A/Kansas/14/2017 (H3N2))
[11] = biological target: neuraminidase (N2) of influenza A virus A/Michigan/173/2020 (H3N2) (influenza A virus A/Michigan/173/2020 (H3N2))
[12] = biological target: neuraminidase (N2) of influenza A virus A/SouthAustralia/34/2019 (H3N2) (influenza A virus A/SouthAustralia/34/2019 (H3N2))
[13] = biological target: neuraminidase (N2) of influenza A virus A/Tasmania/503/2020 (H3N2) (influenza A virus A/Tasmania/503/2020 (H3N2))
[14] = biological target: neuraminidase (N2) of influenza A virus A/Victoria/361/2011 (H3N2) (influenza A virus A/Victoria/361/2011 (H3N2))
[15] = biological target: neuraminidase of influenza B virus B/Brisbane/35/2018 (Victoria) (influenza B virus B/Brisbane/35/2018 (Victoria))
[16] = biological target: neuraminidase of influenza B virus B/Brisbane/60/2008 (Victoria) (influenza B virus B/Brisbane/60/2008 (Victoria))
[17] = biological target: neuraminidase of influenza B virus B/Colorado/6/2017 (Victoria) (influenza B virus B/Colorado/6/2017 (Victoria))
[18] = biological target: neuraminidase of influenza B virus B/Laos/0080/2016 (Victoria) (influenza B virus B/Laos/0080/2016 (Victoria))
[19] = biological target: neuraminidase of influenza B virus B/Phuket/3073/2013 (Yamagata) (influenza B virus B/Phuket/3073/2013 (Yamagata))
[20] = biological target: neuraminidase of influenza B virus B/Texas/6/2011 (Yamagata) (influenza B virus B/Texas/6/2011 (Yamagata))
[21] = biological target: neuraminidase of influenza B virus B/Utah/9/2014 (Yamagata) (influenza B virus B/Utah/9/2014 (Yamagata))
[22] = biological target: neuraminidase of influenza B virus B/Washington/02/2019 (Victoria) (influenza B virus B/Washington/02/2019 (Victoria))
[23] = biological target: recombinant N2 NA A/Hong Kong/2671/2019 (N245 glycan) (influenza A virus H3N2 A/Hong Kong/2671/2019)
[24] = biological target: recombinant N2 NA A/Hong Kong/2671/2019 (N245 glycan) (influenza A virus H3N2 A/Hong Kong/2671/2019); assay: SPR
[25] = biological target: neuraminidase of influenza B virus B/Lee/1940 (Ancestral) (influenza B virus B/Lee/1940 (Ancestral)) (UniProt P03474)
Sequence of UniProt P03474 (P03474 whole entry): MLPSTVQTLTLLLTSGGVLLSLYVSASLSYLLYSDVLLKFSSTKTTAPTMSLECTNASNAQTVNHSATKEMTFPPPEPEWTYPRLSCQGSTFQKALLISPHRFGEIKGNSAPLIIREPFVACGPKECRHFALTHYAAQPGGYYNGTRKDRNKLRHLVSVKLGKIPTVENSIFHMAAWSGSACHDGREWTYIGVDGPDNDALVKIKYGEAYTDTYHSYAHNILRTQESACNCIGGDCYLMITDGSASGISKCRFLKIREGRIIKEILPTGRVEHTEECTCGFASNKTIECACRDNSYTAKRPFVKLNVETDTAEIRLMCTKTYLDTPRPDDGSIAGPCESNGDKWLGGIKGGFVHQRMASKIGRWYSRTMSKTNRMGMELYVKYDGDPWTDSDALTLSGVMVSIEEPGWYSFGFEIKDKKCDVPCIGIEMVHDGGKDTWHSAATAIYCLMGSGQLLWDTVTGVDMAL

Substance	In vitro neutralization IC50; virus A/Hawaii/66/2019 (H1N1); mAb as IgG [1] [µg/mL]	In vitro neutralization IC50; virus A/Idaho/07/2018 (H1N1); mAb as IgG [2] [µg/mL]	In vitro neutralization IC50; virus A/Illinois/45/2019 (H1N1); mAb as IgG [3] [µg/mL]	In vitro neutralization IC50; virus A/Michigan/45/2015 (H1N1); mAb as IgG [4] [µg/mL]	In vitro neutralization IC50; virus A/Puerto Rico/1934 (H1N1); mAb as IgG [5] [µg/mL]	In vitro neutralization IC50; virus A/Victoria/2570/2019 (H1N1); mAb as IgG [6] [µg/mL]	In vitro neutralization IC50; virus A/Cambodia/E0826360/2020 (H3N2); mAb as IgG [7] [µg/mL]	In vitro neutralization IC50; virus A/Darwin/6/2021 (H3N2); mAb as IgG [8] [µg/mL]	In vitro neutralization IC50; virus A/HongKong/4801/2014 (H3N2); mAb as IgG [9] [µg/mL]	In vitro neutralization IC50; virus A/Kansas/14/2017 (H3N2); mAb as IgG [10] [µg/mL]	In vitro neutralization IC50; virus A/Michigan/173/2020 (H3N2); mAb as IgG [11] [µg/mL]	In vitro neutralization IC50; virus A/SouthAustralia/34/2019 (H3N2); mAb as IgG [12] [µg/mL]	In vitro neutralization IC50; virus A/Tasmania/503/2020 (H3N2); mAb as IgG [13] [µg/mL]	In vitro neutralization IC50; virus A/Victoria/361/2011 (H3N2); mAb as IgG [14] [µg/mL]	In vitro neutralization IC50; virus B/Brisbane/35/2018 (Victoria); mAb as IgG [15] [µg/mL]	In vitro neutralization IC50; virus B/Brisbane/60/2008 (Victoria); mAb as IgG [16] [µg/mL]	In vitro neutralization IC50; virus B/Colorado/6/2017 (Victoria); mAb as IgG [17] [µg/mL]	In vitro neutralization IC50; virus B/Laos/0080/2016 (Victoria); mAb as IgG [18] [µg/mL]	In vitro neutralization IC50; virus B/Phuket/3073/2013 (Yamagata); mAb as IgG [19] [µg/mL]	In vitro neutralization IC50; virus B/Texas/6/2011 (Yamagata); mAb as IgG [20] [µg/mL]	further results
1G01 Fab	0.306	0.293	0.673	0.57	4.81	15.1	18.6	> 50	0.058	4.52	6.2	4.4	26.1	0.039	> 50	> 50	1.63	13.5	> 50	> 50	In vitro neutralization IC50; virus B/Utah/9/2014 (Yamagata); mAb as IgG [21]: > 50 µg/mL; In vitro neutralization IC50; virus B/Washington/02/2019 (Victoria); mAb as IgG [22]: 5.61 µg/mL; In vitro neutralization IC50; virus A/HongKong/2671/2019 (H3N2); mAb as IgG [23]: 21.5 µg/mL; Kd [24]: 375 nM
FNI9 Fab	0.039	0.079	0.243	0.151	0.028	0.168	1.61	1.13	0.022	0.284	3.09	0.76	2.01	0.082	0.026	1.16	0.669	0.047	0.193	0.104	In vitro neutralization IC50; virus B/Lee/1940 (Ancestral); mAb as IgG [25]: 0.051 µg/mL; In vitro neutralization IC50; virus B/Utah/9/2014 (Yamagata); mAb as IgG [21]: 0.245 µg/mL; In vitro neutralization IC50; virus B/Washington/02/2019 (Victoria); mAb as IgG [22]: 0.031 µg/mL; In vitro neutralization IC50; virus A/HongKong/2671/2019 (H3N2); mAb as IgG [23]: 0.073 µg/mL; Kd [24]: 16 nM
